# Measured values published in the nanobody polyreactivity screen of Harvey et al. (2022).
# Test: yeast display, Sf9 membrane polyspecificity reagent, FACS + sequencing; frameworks hold sequencing errors
# How it was run: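 Nanobodies from a synthetic yeast display library (Saccharomyces cerevisiae BJ5465), induced 36–48 hours with galactose, were stained 1 hour at 4 °C with 10% biotinylated, detergent-solubilized Sf9 membrane reagent, enriched on streptavidin microbeads, then FACS-sorted. Anti-HA (expression) and streptavidin (reagent binding) fluorescence set low and high (top ~1%) gates. Polyreactivity labels come from the gate of origin. Genes were colony-PCR amplified, MiSeq 2 × 250 sequenced and filtered by CDR length.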
row,Sequence,polyreactivity (PSR sort gate)
1,AVQLVESGGGLVQAGGSLRLSCAASGSTCTGMTWDGRHRRLGRKELVAGIRSAGSTNYADSVKGRFTISGDNAKITVYLQLNSLKPEDTAVYYCAKDYRWVWRKYGYWGQGTQVTVSS,low polyreactivity
2,EDQLEESGGGLVQAGGSLRLSCAASGLIFPSYVMGWYRQAPGKERELVASISRVGSTYADSVKGRFTISRDNAKNTVYLQMNSLKPEDTAVYYCAKQVVWRGFRGLDYWGQGTQVTLSS,high polyreactivity
3,EEELVESGGGLVQAGGRLRLSCAASGRIFDYNAMGWYRQAPAKQRELVAVIDYSGDSTYYADSVKGRFTISRDNAKNTVYLQLISLKPEDTAVYYCNADSRYSYSDYGYWGQGTQVNVSS,low polyreactivity
4,EEELVESGGGLVQPGGSLRLSCAASGSIFTHYSMGWYRQAPGKERELVAAISWSGGSTYYADSVKGRFTISRDNAKYTVSLQMNSLKAEDTAVYYCAAETYWGDDYWGQGTQVTVSS,high polyreactivity
5,EVQLGESGGGLVQAGGSLRLSCAASGSTFNTNAMGWYRQAPGKERELVAAISWSSTRTYYADSVKGRFTISRDNAKNTVYLQINSLKPEDTAVYYCAGRSVGGRYFKGNYWGHGTQVTVSS,high polyreactivity
6,EVQLVESGGGLVQAGGSLRLICAASGSIFRDNAMGWYRQAPGKERELVARITWSGTRTYYADSVKGRFTISRDKAKNTVYLQMNSLKPEDTAVYYCNKDRRTIPPSGNDYWGQGTQVTVSS,low polyreactivity
7,EVQLVESGGGLVQAGGSLRLSCAASGRTFLVNAMGWSRPAPGKERELVAAISRSSGRTYYADSVKGRFTISRDNAKNTVYLQMNSLKPEDTAVYYCAARGYWGQGTQVTVSS,high polyreactivity
8,EVQLVESGGGLVQAGGSLRLSCAASGSIFYTNTMGWYRQAPGKERELVATGSTYYADSVKGRFTISRDNAKNTVYLQMNSLKPEDTAVYYCAKRGDFLTTRYESGSAASDYWGQGTQVTVSS,low polyreactivity
9,EVQLVESGGGLVQAGGSLRLSCAASGTSFLLYAMGWYRQARGKERELLAAISSSGARTYYADSVKGRCTISRDNAKYTVYLQMNSLKPEDTAVYYCAASRRAYRSSYVSPFGYWGQGTQVTGSS,high polyreactivity
10,EVQLVESGGGLVQAGGSLRLSCAAYGFTFVVYDMGWYRQAPGKERELVAAISRRGGNTYYADSVKGRFTISRDNAKNTVYLQMNSLKPEDTAVYYCNAVRTRKAYDYWGQGTQVTVSS,low polyreactivity
11,EVQLVESGGGLVQAGGSLRLSCADSGGIFIFYALGWYRQAPWKEREFVASIRSNVGSTYYADSVKGRFTISRDNAKNTVYLQMNSLNPEDTAVYYCNSRYYWYRGYDYWGQGTQVTVSS,high polyreactivity
12,EVQLVESGGGLVQSGGSLRLSSAASGSIFRYYAMGWYRQAPGKERELVAAITGSTGRTYYADSVKGRFTISRDNAKNTVYLQMNSLKPEDTAVYYCAARSRYYEYDYWGQGTQVTVSS,low polyreactivity
13,HAQLQESGGGLVQAGGSLRRSCAASGSIFRFSGMGWYRRAPGKERELVASIGFGSITYYADRVKGRFTISRDNANKTVYLQMNSLKPEDTAVYYCAVQVQDESWLDYWGQGTQVTVSC,low polyreactivity
14,HDQLVESGGGLVQAGGSLRLSCAASGNTFIYYAMGWYRQAPGKEREMVAAISRSGGSTYYADSVKGRFTISRDNAKNTVYLQMNSLKPEDTAVYYCAAEATKWIGVVTMDYWGQGTQVTVSS,high polyreactivity
15,HFQLVESGGGLVQAGGSLRLSCAASGFTFNDMGWYRLATGKERELVARIDSDDTTNYADSVKGRFTISRDNAKKTVYVLMNSLKPEDTAVYYCNKDYAWLSYQDYDYWGQGTQVTVSS,low polyreactivity
16,HFQLVESGGGLVQAGGSLRLSCAASGSSYSNYAMGWYRQAPGKEREMVAAISSSGSTYYADSVKGRFTISRDNAKNTVYLQLHRLKPEDTAVYYCAAGKDRRTSRYRYDSWGQGTQVTVSS,high polyreactivity
17,HGQLVESGGGLVQAGGSLRLSCAASGRTFRYYAMGWYREAPGKERELVAAITGSGGSTYYADSVKGRFTISRDNAQNTVYLQMNSLKPEDTAVYYCATRWALRWRGGYWGQGTQVTVSS,high polyreactivity
18,HLQLVESGGGLVQAGGSLRLSCAASGSILNFYAMGWYRQAPGTERELVAAISSSGGSTYYADSVKGRFTISRDNAKNTVYLQMNILQPEDTAVYYCNADYSPSSDSEYGYWGQGTQVTVSS,low polyreactivity
19,HLQLVESGGVLVQAGGSLRLSCASSGSTFRSNVMGWYRQAPGKAREFVAAITSSSATTYYADSVKGRFTISRDNAKNTVYLLINSLKPEDTAVYYCAAGGRKAGPAGGQYYYWGQGTQVTVSS,low polyreactivity
20,HLQLVETVGGLDQAGGSLRLSFAASGITSYGYAKGGYSEAAANESELVASISWTGGNTYADSLKGRFTISRDNAKNSVYLQMNSLKPEDSAVYYSNAGRSWDFLYCYEYWGQGTQVTVSS,low polyreactivity
21,HSAVGLVQAGVRHPLSCAASGRMFKYNAMRWYRQAPGKERELVAAISYSGGSTYYADSVKGRFTISRDNEMYTVYLQMNSLKPEDTAVYYCAKATSTREPKYGYWGQGTHVTVSS,high polyreactivity
22,HVELVQSCGGLVQAGGSLRLSSAASGRIFSPYVMGWFRQAPGKVRQLVAASRNRGGSTYYAAAVKWRFTISRDNATNTVYIQMNSLKPEDTAVYYCNAPDVSRPLRGRYDYWGQGTQVTVSS,high polyreactivity
23,HVQHVDSGAGLVQAGGSLRLSCAASGRTFVGYAMGWYRQAPGKEREFVADITYDSGSTYYADSVKGRFTISRDNAKNTVYLQMNSLKPEDTAVYYCNAKYYYWWYDVDYWGQGTQVTVSS,high polyreactivity
24,HVQHVDSGGGLVQAGGSLRLSFAAYGRIFVNNAMGWYRQATGKERELVAAISQNGGRTYYADSVKGRFTISRDNAKNTVYLQMNSLKPEDTAVYYCAAGQARAGLIGGYWGQGTQVTVSS,high polyreactivity
25,HVQIVESGGGLVQAGGSLRLSCADSGSTFLGYDMGWFRQAPGKVRELVATISKSGGSTHYADSVKGRFTISRDNAKNTVSLQMNSLKPEETAVYYCAADYYPRYYKNTGEYDYWGQGTQVTVSS,low polyreactivity
26,HVQLQERGGGLVQAGGSLRPSCAARGTISDGVPMGWYRQAPGEERELVATTVLGATTNYADSVKGRFTISRGNAKNTVYLQMNSLNPEETAVYYCAAPLRYDKGFSYWGQGTQVTVSS,low polyreactivity
27,HVQLQESGGGLVQAGGDLRLSCAASGNIFRDYIMGWYRQAPGKEREFVAGIDRGANTNYADSVKGRFTISRDNAKNTVYLQMNSLIPEDTAVYYCAVHTAIVPDFIYWGQGTQVTVSS,low polyreactivity
28,HVQLQESGGGLVQAGGSLRLSCAASGNISYSRNMGWYRQAPGKERELVAAIDRGAITYYADSVQGRFTISRDNAKNTVYLQIYSLKPEDTAVYYCAAEYHDRWDHLYWGQGTQVTVSS,high polyreactivity
29,HVQLQESGGGLVQAGGSLRLSCAASGSNFRWSPMGWYRLAPGKEREFVAGINRGGITNYADSVKGRFTSSRDNAKNTVYLQMNSLKPEDTALYYCAAIAYPDLPTYFDYDSDYFYRGQGTQVTVSS,low polyreactivity
30,HVQLQESGGVLVQAGGSLRLSCAASGSIFQATYMGWYRQAPGKEREFVASITYGSITNYADSVKGRFTIGRDNAKDTLYLQMNSLKPEDTAVYYCADDRHYIPAFHYWGQGTQVTVSS,low polyreactivity
